These results are taken from article PMC7840605, “3-Hydroxyphthalic Anhydride-Modified Chicken Ovalbumin as a Potential Candidate Inhibits SARS-CoV-2 Infection by Disrupting the Interaction of Spike Protein With Host ACE2 Receptor” (Frontiers in Pharmacology, 2020).

Bounds are passed on as bounds.

For this test, the target named is SARS-CoV-2 spike (S) protein (SARS-CoV-2, UniProt P0DTC2). Description: cell-based or functional assay.

B1: chicken ovalbumin (natural protein)
chain: MGSIGAASMEFCFDVFKELKVHHANENIFYCPIAIMSALAMVYLGAKDSTRTQINKVVRFDKLPGFGDSIEAQCGTSVNVHSSLRDILNQITKPNDVYSFSLASRLYAEERYPILPEYLQCVKELYRGGLEPINFQTAADQARELINSWVESQTNGIIRNVLQPSSVDSQTAMVLVNAIVFKGLWEKAFKDEDTQAMPFRVTEQESKPVQMMYQIGLFRVASMASEKMKILELPFASGTMSMLVLLPDEVSGLEQLESIINFEKLTEWTSSNVMEERKIKVYLPRMKMEEKYNLTSVLMAMGITDVFSSSANLSGISSAESLKISQAVHAAHAEINEAGREVVGSAEAGVDAASVSEEFRADHPFLFCIKHIATNAVLFFGRCVSP
Turning to B1, the “IC50 against live SARS-CoV-2 in Vero E6 cells (CPE assay)” value was above 50 µM.
